Results on one molecule are retold here after patent US20220023386A1, “METHOD FOR THE TREATMENT OR PREVENTION OF OSTEOARTHRITIS” (Chondropeptix B.V., priority 2016, published 2022).

In data set [1] the test system is cartilage explants from OA patient's knee articular cartilage. Put plainly: Treatment of cartilage explants, hypertrophic gene expression via qRT-PCR. Type of data set: cell-based, human. The following applies: BMP-7 1 nM, SEQ ID NO: 16 10 nM, 24 h. The protocol: 4 mm2 cartilage explants were taken from non-lesion areas of OA patient's knee articular cartilage (n=5) and randomly assigned to different experimental treatment conditions (4 explants per treatment group). After a 24 h equilibration period the explants were treated with BMP-7 (1 nM) or the 12-mer peptide according to SEQ ID NO: 16 (10 nM) for 24 h. Hypertrophic gene expression was determined via qRT-PCR and normalized for 28S rRNA levels. After treatment with BMP-7 or the 12 mer we observed a downregulation of pro-hypertrophic genes, such as Col10a1 (FIG. 10A) and MMP13 (FIG. 10B).

The subject of data set [2] is Cartilage explants from OA patient's knee cartilage. Put plainly: PGE2 levels via ELISA in cartilage explants. The format is cell-based, human. The following applies: 14 days; BMP-7 1 nM, peptides 10 nM. The protocol:
Cartilage explants of 3 mm^2 were taken from OA patient's knee cartilage (n=6) and treated with BMP-7 (1 nM), with peptide […] (SEQ ID NO: 8) at 10 nM or a scrambled irrelevant control peptide (10 nM) for 14 days. Prostaglandin E2 (PGE2) levels, a pro-hypertrophic factor, were determined via an ELISA.

The next data set relates to Cartilage explants. The data set can be described thus: Safranin-O staining of glycosaminoglycans in cartilage explants. Type of data set: cell-based, human. The following applies: 14 days; BMP-7 1 nM, SEQ ID NO: 8 10 nM; 2 patients. On the procedure: Cartilage explants obtained from 2 patients were cultured for 14 days in the presence of BMP-7 (1 nM) or BMP-7 mimicking peptide […] (SEQ ID NO: 8) at 10 nM. Glycosaminoglycans (GAGs), an important component of the extracellular matrix (ECM), were stained with Safranin-O (in red) and other tissues are counterstained with Fast green (in green/blue).

For data set [3], the system named is Osteoarthritic chondrocytes. The data set can be described thus: BMP-7 rescue of OA-associated chondrocyte phenotype (FIG. 1). The format is cell-based. The protocol:
Osteoarthritic chondrocytes display a typical phenotype that is characterized by decreased expression of SOX9, COL2A1, ACAN and BAPX1/NKX3.2 and an increased expression of RUNX2, COL10A1, ALP, MMP13, ADAMTSS, COX-2 and IL-6 mRNAs (see left panel).
Functional ALP enzyme activity in cell lysates and PGE2 secretion in the culture medium was also normalized upon BMP-7 treatment of OA chondrocytes (right panel).
Expression of indicated mRNAs was determined by RT-qPCR, relatively to control conditions (normalized for 28S rRNA expression). In graphs, error bars represent mean±SEM, statistical differences were calculated as compared to healthy condition. *=p<0.05.

Data set [4] deals with Synovial tissue, Hoffa's fat pad tissue and meniscus tissue samples from OA patients. Put plainly: PGE2 levels via ELISA in synovial, Hoffa's fat pad and meniscus tissue samples. The format is cell-based, human. The following applies: 24 h; BMP-7 1 nM, peptides 10 nM. The protocol: Synovial tissue samples from OA patients (n=6) were treated with BMP-7 (1 nM), with peptide […] (SEQ ID NO: 8) at 10 nM or a scrambled irrelevant control peptide (10 nM) for 24 h. PGE2 levels were determined via an ELISA.
Hoffa's fat pad tissue samples from OA patients (n=6) were treated with BMP-7 (1 nM) with peptide […] (SEQ ID NO: 8) at 10 nM or a scrambled irrelevant control peptide (10 nM) for 24 h. PGE2 levels were determined via an ELISA.
Meniscus tissue samples from OA patients (n=6) were treated with BMP-7 (1 nM) with peptide […] (SEQ ID NO: 8) at 10 nM or a scrambled irrelevant control peptide (10 nM) for 24 h. PGE2 levels were determined via an ELISA.

The next data set concerns OA. The following applies: intra-articular administration, rats; cited from earlier work.
Data set [5] concerns Isolated chondrocytes from OA patients. The data set can be described thus: Treatment of isolated chondrocytes from OA patients, gene expression via qRT-PCR. The format is cell-based, human. The following applies: 1 nM, 24 h, n=6. The protocol: Isolated chondrocytes from OA patients (n=6) were treated with BMP-7 (1 nM) or the 12-mer peptide according to SEQ ID NO: 16 (1 nM) for 24 h. Pro-chondrogenic (FIG. 9A) and hypertrophic (FIGS. 9B, 9C and 9D) gene expression was determined via qRT-PCR and normalized for 28S rRNA levels.

The next data set concerns OA patients. The following applies: intra-articular injection, phase-1; cited from earlier work.
[6] abbreviates: BMP-7 treatment of OA chondrocytes.

B1: bone morphogenetic protein-7 (protein)
chain: STGSKQRSQNRSKTPKNQEALRMANVAENSSSDQRQACKKHELYVSFRDLGWQDWIIAPEGYAAYYCEGECAFPLNSYMNATNHAIVQTLVHFINPETVPKPCCAPTQLNAISVLYFDDSSNVILKKYRNMVVRACGCH
modifications: homo sapiens
notes: full-length recombinant human BMP-7, mature polypeptide of 139 amino acids
B1: in data set [1], the Col10a1 gene expression entry is recorded as “downregulation” and the MMP13 gene expression result is on record as “downregulation”. In addition, the “PGE2 levels in the cartilage” value in data set [2] is listed as “reduce PGE2 levels”. The “Safranin-O intensity (GAGs) compared to control” value in the data set on Cartilage explants is “increased Safranin-O intensity”. Besides, the “concentration at which OA chondrocyte-phenotype suppressive action is most pronounced” value in data set [3] is listed as “around 1 nM”. Further, the “OA-associated chondrocyte phenotype (expression of SOX9, COL2A1, ACAN, BAPX1/NKX3.2, RUNX2, COL10A1, ALP, MMP13, ADAMTS5, COX-2, IL-6 mRNAs)” value in data set [3] (BMP-7 1 nM) is reported as “able to rescue”. In addition, the “effects on the chondrocyte phenotype at high concentration” value in data set [3] (BMP-7 concentrations higher than 1 nM (eg 10 nM or 100 nM)) is “opposite and negative effects”. In data set [3] (setting [6]), the “Functional ALP enzyme activity in cell lysates” value was “normalized” and the “PGE2 secretion in the culture medium” value is on record as “normalized”. Also, the “PGE2 levels in the surrounding tissues (synovial, Hoffa's fat pad, meniscus)” value in data set [4] was “reduce PGE2 levels”. In addition, the “OA development and progression” value with OA was “protects against OA development and delays progression of OA”. In addition, in data set [5], the “COL10A1 gene expression (pro-hypertrophic)” value is recorded as “downregulation”, the “COX-2 gene expression (pro-hypertrophic)” value was “downregulation”, the “Col2a1 gene expression (pro-chondrogenic)” value is “upregulation” and the “RUNX2 gene expression (pro-hypertrophic)” value was “downregulation”. The adverse events entry in the data set with OA patients is on record as “no serious adverse events”.
